From patent US20250188194A1, “Method of treatment” (Nucleus Therapeutics Pty Ltd, priority 2021, published 2025)

Tested on: differentiated PLB-985 cells
Experiment: Quantifying DNA released (adherent NET-DNA) after PMA stimulation by spectrophotometry
Assay type: cell-based, human
Details: 10 μM DX1 one hour, 300 nM PMA four hours; PMA control 4.50±0.14; N=3
Method: The results of the DAPI and SYTOX™ Green staining studies in FIG. 2C, 2D are consistent with DX1-mediated inhibition of chromatin decondensation and DNA release by differentiated PLB-985 cells. To further probe this effect, DNA-protein release was measured by differentiated PLB-985 cells after PMA stimulation by resuspending and quantifying DNA-protein complexes adherent to wells by spectrophotometry using a previously described protocol for isolation and quantification of NET-DNA in cell culture. This assay is based on the concept that intact cells for the most part remain in suspension, while DNA-protein complexes released in NETs are at least partially adhered to wells. This distinction allows for separation of intact cells from adherent NET-DNA by aspiration of the cell culture supernatants, followed by resuspension of adherent DNA-protein complexes and quantification by spectrophotometry.
Next, the ability of this assay to detect the effect of a known NETosis inhibitor on DNA release by differentiated PLB-985 cells stimulated by PMA was verified. […] Differentiated PLB-985 cells were treated with 0-50 μM of GSK484 for one hour prior to stimulation with PMA, followed by quantification of adherent DNA by spectrophotometry. […]

B1: DX1: 3E10 derivative, a di-scFv having the sequence SEQ ID NO: 38; nuclear-penetrating anti-DNA binding protein (protein)
scFv: DIQMTQSPSSLSASLGDRATITCRASKTVSTSSYSYMHWYQQKPGQPPKLLIKYASYLESGVPSRFSGSGSGTDFTLTISSLQPEDAATYYCQHSREFPWTFGGGTKVEIKTVDAAPGGGGSGGGGSGGGGSEVQLVESGGGLVQPGGSLRLSCAASGFTFSNYGMHWVRQAPGKGLEWVSYISSGSSTIYYADSVKGRFTISRDNAKNSLYLQMNSLRAEDTAVYYCARRGLLLDYWGQGTTVTVSSASTKGPSVFPLAPLESTGSDIQMTQSPSSLSASLGDRATITCRASKTVSTSSYSYMHWYQQKPGQPPKLLIKYASYLESGVPSRFSGSGSGTDFTLTISSLQPEDAATYYCQHSREFPWTFGGGTKVEIKTVDAAPGGGGSGGGGSGGGGSEVQLVESGGGLVQPGGSLRLSCAASGFTFSNYGMHWVRQAPGKGLEWVSYISSGSSTIYYADSVKGRFTISRDNAKNSLYLQMNSLRAEDTAVYYCARRGLLLDYWGQGTTVTVSS
modifications: DX1 sequence
released/adherent DNA content relative to unstimulated control cells: 1.80±0.11
